The values that follow come from patent US20080058263A1 (published 2008).

B1: 62-14 (ligand)
chain: GQNHHEVVKFMDVYQRSYCHPREVCIDVGKEFGVATNTFFKPPCVSVYRCGGCCNDEGLECMNTSTSYLSKTLFEITVPLSQGPKPVTISFANHTSCRCMSKLD
B2: 64-10 (ligand)
chain: GQNHHEVVKFMDVYQRSYCHPREVCIDVGKEFGVATNTFFKPSCVPLMRCGGCCNDEGLECMNTSTSYLSKTLFEITVPLSQGPKPVTISFLQHNKCECRPKKD
B3: 64-16 (ligand)
chain: B1 chain with P43S, S46P, V47L, Y48M, D56S, E60Q
B4: 63-14 (ligand)
chain: B1 chain with F32Y, G33P, V34D, A35E, T36I, N37E, T38Y, F39I
B5: 44-14 (ligand)
chain: AHYNTEILKFMDVYQRSYCHPREVCIDVGKEFGVATNTFFKPSCVPLMRCGGCCNDEGLECMNTSTSYLSKTLFEITVPLSQGPKPVTISFANHTSCRCMSKLD
B6: 42-16 (ligand)
chain: B5 chain with S43P, P46S, L47V, M48Y, D56S, E60Q
B7: 42-14 (ligand)
chain: B5 chain with S43P, P46S, L47V, M48Y
B8: 62-12 (ligand)
chain: B2 chain with S43P, P46S, L47V, M48Y, D56S, E60Q
B9: 63-16 (ligand)
chain: B1 chain with F32Y, G33P, V34D, A35E, T36I, N37E, T38Y, F39I, D56S, E60Q
B10: 62-10 (ligand)
chain: B2 chain with S43P, P46S, L47V, M48Y
B11: 64-14 (ligand)
chain: B1 chain with P43S, S46P, V47L, Y48M
B12: 62-16 (ligand)
chain: B1 chain with D56S, E60Q
B13: 62-11 (ligand)
chain: GQNHHEVVKFMDVYQRSYCHPREVCIDVGKEFGVATNTFFKPPCVSVYRCGGCCNSEGLQCVPTEESNITMQIMRITVPLSQGPKPVTISFLQHNKCECRPKKD
B14: 13-6 (ligand)
chain: GQNHHEVVKFMDVYQRSYCHPIETLVDIFQEYPDEIEYIFKPPCVSVYRCGGCCNDEGLECMNTSTSYLSKTLFEIKPHQGQHIGEMSFANHTSCRCMSKLD
B15: 63-6 (ligand)
chain: B14 chain with I22R, T24V, L25C, V26I, I28V, F29G, Q30K
B16: 61-6 (ligand)
chain: GQNHHEVVKFMDVYQRSYCHPREVCIDVGKEYPDEIEYIFKPSCVPLMRCGGCCNDEGLECMNTSTSYLSKTLFEIKPHQGQHIGEMSFANHTSCRCMSKLD
B17: 13-8 (ligand)
chain: B14 chain with D56S, E60Q
B18: 43-6 (ligand)
chain: AHYNTEILKFMDVYQRSYCHPREVCIDVGKEYPDEIEYIFKPPCVSVYRCGGCCNDEGLECMNTSTSYLSKTLFEIKPHQGQHIGEMSFANHTSCRCMSKLD
B19: 61-8 (ligand)
chain: B16 chain with D56S, E60Q
B20: 43-8 (ligand)
chain: B18 chain with D56S, E60Q
B21: 62-6 (ligand)
chain: GQNHHEVVKFMDVYQRSYCHPREVCIDVGKEFGVATNTFFKPPCVSVYRCGGCCNDEGLECMNTSTSYLSKTLFEIKPHQGQHIGEMSFANHTSCRCMSKLD
B22: 62-8 (ligand)
chain: B21 chain with D56S, E60Q
B23: 64-8 (ligand)
chain: B21 chain with P43S, S46P, V47L, Y48M, D56S, E60Q
B24: 61-4 (ligand)
chain: B16 chain with D56S, E60Q, A90L, N91Q, T93N, S94K, R96E, M98R, S99P, L101K
B25: 61-13 (ligand)
chain: GQNHHEVVKFMDVYQRSYCHPREVCIDVGKEYPDEIEYIFKPSCVPLMRCGGCCNDEGLECVPTEESNITMQIMRITVPLSQGPKPVTISFANHTSCRCMSKLD
B26: 43-13 (ligand)
chain: AHYNTEILKFMDVYQRSYCHPREVCIDVGKEYPDEIEYIFKPPCVSVYRCGGCCNDEGLECVPTEESNITMQIMRITVPLSQGPKPVTISFANHTSCRCMSKLD
B27: 13-13 (ligand)
chain: GQNHHEVVKFMDVYQRSYCHPIETLVDIFQEYPDEIEYIFKPPCVSVYRCGGCCNDEGLECVPTEESNITMQIMRITVPLSQGPKPVTISFANHTSCRCMSKLD

Substitutions are numbered along the chain they refer to.

T2 sequence (P35968 20-322): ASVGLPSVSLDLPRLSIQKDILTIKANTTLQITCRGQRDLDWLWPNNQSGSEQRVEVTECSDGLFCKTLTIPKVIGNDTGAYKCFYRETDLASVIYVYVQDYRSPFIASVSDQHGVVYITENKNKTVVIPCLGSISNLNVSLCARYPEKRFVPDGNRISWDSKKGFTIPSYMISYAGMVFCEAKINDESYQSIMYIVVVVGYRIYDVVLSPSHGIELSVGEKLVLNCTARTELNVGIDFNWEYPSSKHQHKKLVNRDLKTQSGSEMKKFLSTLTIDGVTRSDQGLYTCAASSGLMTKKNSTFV

The target of one assay is T1, VEGFR-1-Fc (UniProt P17948 27-338).
T1 construct: domain: first three Ig domains; expressed in Drosophila S2 cells, purified on Protein A sepharose; also called VEGFR-1-Fc fusion protein; not shown: Fc fragment from the Signal-pIgPlus vector
T1 sequence (P17948 27-338): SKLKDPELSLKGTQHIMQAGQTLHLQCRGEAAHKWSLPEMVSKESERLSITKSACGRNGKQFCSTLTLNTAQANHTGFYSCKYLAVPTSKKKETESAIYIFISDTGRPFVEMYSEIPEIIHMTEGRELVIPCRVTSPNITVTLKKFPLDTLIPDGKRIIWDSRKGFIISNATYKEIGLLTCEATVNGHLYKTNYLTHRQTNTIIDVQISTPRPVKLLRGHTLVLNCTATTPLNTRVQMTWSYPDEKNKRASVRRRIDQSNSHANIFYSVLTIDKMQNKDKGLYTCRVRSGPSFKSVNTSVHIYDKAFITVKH
Nature of the assay: receptor-Fc IP. The essentials: (§1)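 Binding of ligand from sample supernatant measured by pentahistidine-antibody immunoprecipitation. IP mix: PBS with 1.5% BSA, 0.06% Tween 20, 3 μg/ml heparin and 400 ng/ml fusion protein, added 1:2 to sample supernatant.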
As for B1, the binding result is on record as “no binding”.

As to B2, the binding result was “no binding”.

For the molecule B3, the binding result was “no binding”.

As to B4, the binding result is “no binding”.

In the case of B5, the binding result was “no binding”.

Consider B6, for which the binding result is reported as “no binding”.

Regarding B7, the binding result is “no binding”.

B8: the binding result was “no binding”.

Consider B9, for which the binding result was “no binding”.

B10: the binding result is “no binding”.

With B11, the binding result is recorded as “no binding”.

On to B12, for which the binding result was “no binding”.

B13: the binding result is “no binding”.

In the case of B14, the binding result is on record as “no binding”.

For B15, the binding result is “no binding”.

Take B16: the binding result is “no binding”.

B17: the binding result is given as “no binding”.

Consider B18, for which the binding result is reported as “no binding”.

Take B19: the binding result was “no binding”.

In the case of B20, the binding result is “no binding”.

As to B21, the binding result is listed as “no binding”.

As to B22, the binding result is “no binding”.

On to B23, for which the binding result is on record as “no binding”.

Regarding B24, the binding result is listed as “no binding”.

For B25, the binding result was “no binding”.

Take B26: the binding result is “no binding”.

Turning to B27, the binding result is listed as “binds”.

The next assay addresses T2, VEGFR-2-Fc (UniProt P35968 20-322).
T2 construct: domain: first 3 Ig domains; conditioned supernatant of 293T cells; also called VEGFR-2-Fc fusion protein; not shown: Fc fragment of the pIg vector
Nature of the assay: receptor-Fc IP. The method in brief:
as §1
On to B1, for which the binding result is given as “no binding”.

For the molecule B2, the binding result was “no binding”.

For the molecule B3, the binding result was “no binding”.

As for B4, the binding result was “no binding”.

For the molecule B5, the binding result was “no binding”.

Consider B6, for which the binding result was “no binding”.

As to B7, the binding result is “no binding”.

Regarding B8, the binding result was “no binding”.

Regarding B9, the binding result is “no binding”.

With B10, the binding result is reported as “binds”.

For the molecule B11, the binding result was “no binding”.

Take B12: the binding result is reported as “no binding”.

B13: the binding result is “binds”.

On to B14, for which the binding result was “no binding”.

With B15, the binding result was “binds”.

As for B16, the binding result is given as “no binding”.

Consider B17, for which the binding result is reported as “no binding”.

On to B18, for which the binding result is on record as “no binding”.

For the molecule B19, the binding result was “no binding”.

With B20, the binding result is listed as “no binding”.

Turning to B21, the binding result is “no binding”.

In the case of B22, the binding result is listed as “binds”.

In the case of B23, the binding result is listed as “no binding”.

As for B24, the binding result is on record as “no binding”.

B25: the binding result is on record as “no binding”.

As to B26, the binding result was “no binding”.

For B27, the binding result was “no binding”.

Another assay deals with T3, VEGFR-3-Fc (UniProt P35916 25-328).
T3 construct: domain: first three Ig domains; conditioned supernatant of 293T cells; also called VEGFR-3-Fc fusion protein; not shown: Fc fragment of the pIg vector
T3 sequence (looked up): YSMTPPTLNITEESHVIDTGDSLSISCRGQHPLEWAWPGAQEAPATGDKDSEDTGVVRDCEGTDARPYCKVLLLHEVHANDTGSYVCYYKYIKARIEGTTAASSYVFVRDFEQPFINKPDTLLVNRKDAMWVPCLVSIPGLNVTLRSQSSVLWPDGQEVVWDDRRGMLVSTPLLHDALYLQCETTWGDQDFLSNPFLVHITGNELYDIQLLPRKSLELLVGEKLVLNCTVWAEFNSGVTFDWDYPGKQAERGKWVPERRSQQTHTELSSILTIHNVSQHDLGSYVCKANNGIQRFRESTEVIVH
The experiment in a line: receptor-Fc IP. The method in brief:
as §1
For the molecule B1, the binding result is “no binding”.

Consider B2, for which the binding result is “no binding”.

Regarding B3, the binding result was “no binding”.

For the molecule B4, the binding result is listed as “no binding”.

As for B5, the binding result is reported as “no binding”.

As for B6, the binding result was “no binding”.

As to B7, the binding result is “no binding”.

In the case of B8, the binding result is “no binding”.

For B9, the binding result is listed as “no binding”.

B10: the binding result is on record as “no binding”.

With B11, the binding result is given as “no binding”.

Turning to B12, the binding result is recorded as “no binding”.

With B13, the binding result was “binds”.

In the case of B14, the binding result was “no binding”.

For the molecule B15, the binding result is on record as “no binding”.

B16: the binding result was “no binding”.

Take B17: the binding result is “no binding”.

For the molecule B18, the binding result is recorded as “no binding”.

For the molecule B19, the binding result is “no binding”.

Regarding B20, the binding result is “no binding”.

As for B21, the binding result is “no binding”.

B22: the binding result is “no binding”.

Regarding B23, the binding result is reported as “no binding”.

With B24, the binding result was “no binding”.

Turning to B25, the binding result is on record as “no binding”.

B26: the binding result is reported as “no binding”.

Regarding B27, the binding result was “no binding”.
